Here are results for 14 sequences from the supplement of paper PMC9170038.

The test system of the data set is MS2 coat protein. The data set can be described thus: apparent KD of MS2 coat protein; designed switch direction (-1 OFF switch, 1 ON switch): -1; higher = weaker reporter binding. In short, it runs like this:
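Transcription of designed RNA switches on Illumina chips was done by stalled E. coli RNA polymerase. SNAP-549-labelled MS2 coat protein was then titrated in doubling steps from 0.7 or 1.5 nM to 3 µM, with steps of 0.8–1.5 h at the lowest and 10–20 min at the highest concentration. The per-design median over clusters of curve-fitted normalised fluorescence is reported as apparent KD.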

Where [1] appears, read: Eterna round: R95, input ligand: FMN 200 uM.
The mark [2] stands for this setting: Eterna round: R95, input ligand: microRNA oligo, concentration not stated.
Where [3] appears, read: Eterna round: R95, input ligand: none.

For “CAGCCUUGAGUUAGGAUAUGCGAUCGUGUAGACGAGCAGAAGGGACAUGAGGAUCACCCAUGUGAAAUAAUUAA [Begeti] (puzzle: Brourd's mod of Exclusion 4)”, the “apparent KD of MS2 coat protein” value reads like this: under setting [1], 18.3 nM; under setting [2], 13.2 nM; under setting [3], 13.4 nM.
With “CAGCUGAAAGUCAGGAUAUCUAGAGCGAUAGCUCUAGAGAAGGGACAUGAGGAUCACCCAUGUGAUCACAGCUG [BmEx4/4-A4] (Eterna round: R97, puzzle: Brourd's mod of Exclusion 4)”, the “apparent KD of MS2 coat protein” value (input ligand: FMN 200 uM) turned out to be 408 nM and the “apparent KD of MS2 coat protein” value (input ligand: none) turned out to be 1980 nM.
In the same order, the values of “CAGCUGAAAGUCAGGAUAUCUAGAGCUUCGGCUCUAGAGAAGGGACAUGAGGAUCACCCAUGUGAUUACAGCUG [BmEx4/6-A1] (Eterna round: R97, puzzle: Brourd's mod of Exclusion 4)” are 108 nM and 60.6 nM.
On to “CAGCUGAAAGUGAGGAUAUCUAGAGCUUCGGCUCUAGAGAAGGCACAUGAGGAUCACCCAUGUCUCAACAGCUG [BmEx4/1-A1] (Eterna round: R97, puzzle: Brourd's mod of Exclusion 4)”, for which the “apparent KD of MS2 coat protein” value stood at 59.5 nM (input ligand: FMN 200 uM) and 16.9 nM (input ligand: none).
Turning to “CAGCUGAAAGUGAGGAUAUCUAGAGCUUCGGCUCUAGAGAAGGCACAUGAGGAUCACCCAUGUGAUCACAGCUG [BmEx4/7-A1] (Eterna round: R97, puzzle: Brourd's mod of Exclusion 4)”, the “apparent KD of MS2 coat protein” value is 633 nM (input ligand: FMN 200 uM) and 356 nM (input ligand: none).
With “CAGCUGAAUGUCAGGAUAUCUAGAGCUGCGGCUCUAGAGAAGGGACAUGAGGAUCACCCAUGUCACUCCAGCUG [BmEx4/3-B3] (Eterna round: R97, puzzle: Brourd's mod of Exclusion 4)”, the “apparent KD of MS2 coat protein” value is, setting by setting: (input ligand: FMN 200 uM) 21.3 nM; (input ligand: none) 16.4 nM.
Turning to “CAGCUGAAUGUGAGGAUAUUACGAGCGAUAGCUCGUGAGAAGGCACAUGAGGAUCACCCAUGUCUCAACAGCUG [BmEx4/2-B4] (Eterna round: R97, puzzle: Brourd's mod of Exclusion 4)”, the “apparent KD of MS2 coat protein” value amounted to 552 nM (input ligand: FMN 200 uM) and 38.6 nM (input ligand: none).
For the sequence “CAGGACUGAGGAUAUGCGCGGACAAGAUCCUCAAUCCCAAAACAUGAGGAUCACCCAUGUAGAAGGCAGAAAUA [Edbein] (puzzle: Exclusion 2)”, the “apparent KD of MS2 coat protein” value was found to be 32.9 nM under setting [1], 35.4 nM under setting [2] and 31 nM under setting [3].
On the same counts, the results for “CAGGACUUAGGAUAUCAUGUGCGAGACAUGAGGAUCACCCAUGUAGGAAGCCGUCGCGGGUGAGAAGGAGGGCGAU [Exclusion 5 S1] (puzzle: Exclusion 5)” are 266 nM, 277 nM and 366 nM.
Regarding “CAGGAUAGAGGAUAUACAUAGAUACAGAUUCGUGUAAUCCUACAUGAGGAUCACCCAUGUAGAAGGCUAUCCUG [Fiskers Ex 2 - 20] (puzzle: Exclusion 2)”, the “apparent KD of MS2 coat protein” value under setting [2] is 13.2 nM.
Turning to “CAGGAUAGAGGAUAUACAUAGAUACAGGUUCAUGUAAUCCUACAUGAGGAUCACCCAUGUAGAAGGCUAUCCUG [Fiskers Ex 2 - 19] (puzzle: Exclusion 2)”, the “apparent KD of MS2 coat protein” value under setting [2] came out at 14.8 nM.
As for “CAGGUUAGAGGAUAUACGUAGGUACAGAUCUGUGUGUUCCUACAUGAGGAUCACCCAUGUAGAAGGCUAUCCUG [LRO-Excl2-09] (puzzle: Exclusion 2)”, the “apparent KD of MS2 coat protein” value under setting [2] was determined as 61.9 nM.
In the case of “CAGUACAGAGGAUAUACAUGAGGAUCACCCAUGUGUAGCAGCUAGGAGACUAGCGCAUGUAGAAGGCUGUACUG [jl-ex3-4.31 salish99 mod] (Eterna round: R97, puzzle: Exclusion 3)”, the “apparent KD of MS2 coat protein” value runs as follows: (input ligand: FMN 200 uM) 129 nM; (input ligand: none) 21.3 nM.
Consider “CAGUACAGAGGAUAUACAUGAGGAUCACCCAUGUGUUUCAGCAUCGAAAGAUGCGAAUGUAGAAGGCUGUACUG [jl-ex3-4.26 salish99 mod] (Eterna round: R97, puzzle: Exclusion 3)”, for which the “apparent KD of MS2 coat protein” value (input ligand: FMN 200 uM) was found to be 313 nM and the “apparent KD of MS2 coat protein” value (input ligand: none) amounted to 26.5 nM.
